Consider one molecule from patent US20080219970A1 (published 2008).

A word on the Kd: it is a measure of binding affinity in units of concentration. Read a low Kd as higher affinity.

The target in one test is T1, factor VIIa (UniProt P08709 61-466).
T1 construct: also called fVIIa; FVIIa
T1 sequence (looked up): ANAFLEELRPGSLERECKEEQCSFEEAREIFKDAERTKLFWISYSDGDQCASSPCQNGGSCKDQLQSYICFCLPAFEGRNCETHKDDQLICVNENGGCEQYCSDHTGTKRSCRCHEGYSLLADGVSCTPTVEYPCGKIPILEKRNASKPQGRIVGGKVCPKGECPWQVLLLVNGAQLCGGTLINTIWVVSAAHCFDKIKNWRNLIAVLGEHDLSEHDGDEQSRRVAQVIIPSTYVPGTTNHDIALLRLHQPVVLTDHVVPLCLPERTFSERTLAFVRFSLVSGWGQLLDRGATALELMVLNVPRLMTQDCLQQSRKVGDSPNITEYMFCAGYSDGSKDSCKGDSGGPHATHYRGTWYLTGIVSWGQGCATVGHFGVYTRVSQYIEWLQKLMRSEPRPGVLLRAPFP
Nature of the test: SPR (BIAcore 3000), Ir-CPI immobilized on CM5 chip, factor injected as analyte. Here is the method: (§1) The interaction between Ir-CPI and coagulation or fibrinolytic factors was monitored using a BIAcore 3000 instrument (BIAcore AB, Sweden). Ir-CPI (15 μM) was immobilized on the surface of a CM5 sensor chip in 10 mM acetate buffer, pH 5.0, by the amine coupling procedure according to the manufacturer's instructions. 1500 resonance units (RU) of immobilized Ir-CPI were used for the assay. To subtract the non-specific component from the apparent binding response, a blank flow cell was prepared using the same immobilizing procedure without Ir-CPI. Binding analyses were carried out using HBS buffer (HEPES10 mM, NaCl 150 mM, EDTA 3 mM; pH 7.4 with 0.005% surfactant P20) as running buffer at 25° C. 100 μl of each analyte (100 nM) was injected on the sensor chip at a flow rate of 70 μl/min. Association was monitored during an 84 s injection of analyte. Dissociation was monitored for 3 min after return to the running buffer.
(§2) The ability of Ir-CPI to bind a (co)factor of coagulation or fibrinolysis was evaluated by surface plasmon resonance. […] Moreover, the kinetics of interaction between Ir-CPI and the four target factors (XIIa, XIa, plasmin and kallikrein) were measured after a new immobilization of Ir-CPI. In experiments to determine the binding kinetics, the quantity of immobilized Ir-CPI was deliberately kept at a low level (approximately 200 RU) in order to avoid problems where the reaction rate is limited by mass-transport. […] Interaction kinetics were determined for each analyte, at 6 different concentrations (from 5 nM to 300 nM). The kinetic data obtained were individually processed with BIA evaluation software in order to determine the kinetics constants.
In general terms: SPR reads the build-up and loss of mass on a sensor chip optically.

Another test addresses T2, factor IXa (UniProt P00740 47-191; P00740 227-461).
T2 construct: read as fIXa; also called FIXa
Described as above. The procedure:
as §1, §2

A further test deals with T3, factor IX (UniProt P00740 47-461).
T3 construct: also called fIX
The description is as above. Here is the method:
as §1, §2

The next test has as its target T4, factor X (UniProt P00742 41-488).
T4 construct: also called fX
Described as above. The procedure: as §1, §2

For the next test, the target named is thrombin (UniProt P00734 328-622). Described as above. Here is the method:
as §1, §2

For test [1], the target named is T5, high molecular weight kininogen (UniProt P01042 19-644).
T5 construct: also called HMWK
T5 sequence (looked up): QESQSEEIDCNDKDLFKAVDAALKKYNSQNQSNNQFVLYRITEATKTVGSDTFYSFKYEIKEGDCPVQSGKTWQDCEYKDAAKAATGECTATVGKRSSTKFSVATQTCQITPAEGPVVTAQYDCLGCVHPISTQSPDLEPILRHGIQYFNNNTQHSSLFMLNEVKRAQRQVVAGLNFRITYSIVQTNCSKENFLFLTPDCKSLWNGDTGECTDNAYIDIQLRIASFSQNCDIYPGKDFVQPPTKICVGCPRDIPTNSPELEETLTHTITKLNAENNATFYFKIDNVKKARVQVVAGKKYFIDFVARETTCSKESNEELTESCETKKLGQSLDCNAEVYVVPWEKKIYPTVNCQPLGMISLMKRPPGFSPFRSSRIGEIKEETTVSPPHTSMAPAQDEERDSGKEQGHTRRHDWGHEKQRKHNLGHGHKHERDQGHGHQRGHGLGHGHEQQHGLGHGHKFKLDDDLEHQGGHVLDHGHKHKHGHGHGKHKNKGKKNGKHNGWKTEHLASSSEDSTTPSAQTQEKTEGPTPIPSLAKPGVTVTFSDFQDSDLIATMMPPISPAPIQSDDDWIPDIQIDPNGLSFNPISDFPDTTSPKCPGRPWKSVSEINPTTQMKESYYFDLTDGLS
Described as above. The procedure:
as §1, §2

A further test has as its target plasminogen (UniProt P00747 20-810, limits assumed). The description is as above. The procedure:
as §1, §2

In another test the target is t-PA (UniProt P00750 36-562). The test is described as above. Here is the method: as §1, §2
A further test has as its target T6, kallikrein (UniProt P03952 20-638).
T6 construct: also called plasma kallikrein
Nature of the test: SPR kinetics (BIAcore 3000), Ir-CPI immobilized at about 200 RU, analyte at 6 concentrations from 5 nM to 300 nM. The procedure: Interaction kinetics were determined, for each analyte, with 6 different concentrations (from 5 nM to 300 nM). Binding data were analyzed using BIA evaluation software to determine the kinetic constants.
as §2, with “constants. […] FIG. 9 represents sensorgrams for interactions between coagulation factors and immobilized Ir-CPI measured by surface plasmon resonance. Ir-CPI was immobilized onto the surface of a sensor chip CM5 at level of 1500 resonance units (RUs). Contact factors (100 nM final concentration) were injected at a flow rate of 70 μl/min in HBS buffer, and association was monitored. After return to buffer flow, dissociation was monitored during 84 s. […]” for “constants.”

Chain of plasminogen (P00747 20-810 limits assumed): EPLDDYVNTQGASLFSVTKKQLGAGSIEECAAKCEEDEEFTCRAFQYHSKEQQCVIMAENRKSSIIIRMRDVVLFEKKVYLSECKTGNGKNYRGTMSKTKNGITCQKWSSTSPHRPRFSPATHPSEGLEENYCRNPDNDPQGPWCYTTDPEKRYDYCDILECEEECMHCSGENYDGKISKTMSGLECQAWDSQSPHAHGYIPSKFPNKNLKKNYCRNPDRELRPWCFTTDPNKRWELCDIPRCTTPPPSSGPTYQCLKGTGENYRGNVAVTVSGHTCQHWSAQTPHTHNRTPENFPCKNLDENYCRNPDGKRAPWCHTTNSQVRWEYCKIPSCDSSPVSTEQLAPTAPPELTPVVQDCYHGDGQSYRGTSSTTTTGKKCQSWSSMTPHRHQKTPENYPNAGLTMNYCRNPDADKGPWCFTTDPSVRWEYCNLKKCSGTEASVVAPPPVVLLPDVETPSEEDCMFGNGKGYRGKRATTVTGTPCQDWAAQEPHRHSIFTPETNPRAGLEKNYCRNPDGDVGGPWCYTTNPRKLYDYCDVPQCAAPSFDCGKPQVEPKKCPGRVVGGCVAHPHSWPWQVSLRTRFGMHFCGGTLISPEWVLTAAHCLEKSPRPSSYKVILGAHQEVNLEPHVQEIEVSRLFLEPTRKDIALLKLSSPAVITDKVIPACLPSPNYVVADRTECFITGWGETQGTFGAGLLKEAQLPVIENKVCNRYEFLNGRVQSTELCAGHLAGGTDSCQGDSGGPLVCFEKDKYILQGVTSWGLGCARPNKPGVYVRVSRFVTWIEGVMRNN
Chain of t-PA (P00750 36-562 limits assumed): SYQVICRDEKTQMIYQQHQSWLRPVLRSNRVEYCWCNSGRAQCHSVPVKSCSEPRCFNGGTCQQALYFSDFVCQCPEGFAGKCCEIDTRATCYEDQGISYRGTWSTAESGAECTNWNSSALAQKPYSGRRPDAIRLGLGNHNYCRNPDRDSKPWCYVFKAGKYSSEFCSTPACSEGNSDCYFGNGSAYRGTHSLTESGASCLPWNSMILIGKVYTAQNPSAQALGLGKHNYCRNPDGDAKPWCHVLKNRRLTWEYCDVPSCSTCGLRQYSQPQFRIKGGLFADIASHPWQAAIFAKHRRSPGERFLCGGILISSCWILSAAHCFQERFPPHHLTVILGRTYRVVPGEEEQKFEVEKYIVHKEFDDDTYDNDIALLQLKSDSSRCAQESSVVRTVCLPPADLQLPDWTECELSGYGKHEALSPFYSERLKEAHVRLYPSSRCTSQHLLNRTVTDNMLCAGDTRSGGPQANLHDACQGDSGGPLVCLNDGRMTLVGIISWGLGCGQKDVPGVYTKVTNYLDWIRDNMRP
T6 sequence (P03952 20-638 limits assumed): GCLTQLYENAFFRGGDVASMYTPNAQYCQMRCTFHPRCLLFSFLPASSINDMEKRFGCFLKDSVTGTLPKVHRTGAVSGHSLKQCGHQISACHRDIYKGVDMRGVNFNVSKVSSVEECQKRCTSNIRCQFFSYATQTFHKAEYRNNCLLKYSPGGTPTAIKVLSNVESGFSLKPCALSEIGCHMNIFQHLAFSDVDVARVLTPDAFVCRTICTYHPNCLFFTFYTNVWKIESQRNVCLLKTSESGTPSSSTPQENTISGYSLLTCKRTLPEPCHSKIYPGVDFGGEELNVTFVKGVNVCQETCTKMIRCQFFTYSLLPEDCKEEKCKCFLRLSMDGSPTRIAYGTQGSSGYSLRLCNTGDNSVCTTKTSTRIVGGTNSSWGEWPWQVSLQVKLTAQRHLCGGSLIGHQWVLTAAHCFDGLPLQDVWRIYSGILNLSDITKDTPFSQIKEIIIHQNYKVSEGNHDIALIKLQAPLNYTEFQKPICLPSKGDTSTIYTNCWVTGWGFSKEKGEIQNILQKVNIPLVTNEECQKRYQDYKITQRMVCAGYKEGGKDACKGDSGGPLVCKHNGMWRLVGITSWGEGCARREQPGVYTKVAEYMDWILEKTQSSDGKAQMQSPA

B1: Ir-CPI (Ixodes ricinus Contact Phase Inhibitor), recombinant, without its peptide signal (other)
chain: ANHKGRGRPAKCKLPPDDGPCRARIPSYYFDRKTKTCKEFMYGGCEGNENNFENITTCQEECRAKKV
notes: Immobilized on a CM5 chip by amine coupling for SPR; also called recombinant Ir-CPI
In the case of B1, the binding result (in the test with factor VIIa; with factor IXa; in the test with factor IX; with factor X; with thrombin; in test [1]) was “no binding (tested: 100 nM)” each time. The binding result in the test with plasminogen and with t-PA was “no binding (tested: 100 nM)” each time. In the test with kallikrein, this molecule came in with a Kd of 200 nM.
